The results in this text go back to patent publication US20120201826A1 (NOV IMMUNE S A, published 2012).

T1: recombinant human RANTES (huRANTES, Peprotech) (human, UniProt P13501 24-91)
T1 sequence: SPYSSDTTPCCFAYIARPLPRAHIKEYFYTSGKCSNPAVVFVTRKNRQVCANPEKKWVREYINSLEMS

B1: G2 antibody, IgG1 format (antibody, V domains shown)
VH: QVQLVQSGAEVKKPGASVKVSCRASGYALTELSIHWVRQAPGKGLEWMGGFDPEDGETIYAQNFQGRVIMTEDTSTDTAYMELSSLKSEDTAVYYCATDLTGSRDSWGQGTLVTVSS
VL: QSVLTQPASVSGSPGQSITISCTGSRSDIGYYNYVSWYQQHPGKVPKLIIYDVTERPSGVSDRFSGSKSANTASLTISGLQAEDEADYYCSSFSSGDTFVVFGGGTKLTVL
B2: E10 antibody, IgG1 format (antibody, V domains shown)
VH: QVQLVESGGGVVQPGRSLRLSCAASGFTFSSYAMHWVRQAPGKGLEWVAVISYDGSNKYYADSVKGRFSISRDNSKNTLYLQMNSLRAEDTAVYYCARETFPHYYYYYMDVWGKGTMVTVSS
VL: SYVLTQPPSVSVAPGQTARISCGGGNFDDEGVHWYQQTPGQAPVLVVYDDTGRPSGIPERFSGSSSGNTATLTISRVEAGDEADYYCQAWDSSNDHPVFGGGTQLTVL
B3: BG11 antibody, IgG1 format (antibody, V domains shown)
VH: QVQLVQSGAEVKKPGASVKVSCKVSGYTLTELSMHWVRQAPGKGLEWMGGFDPEDGETIYAQKFQGRVTMTEDTSTDTAYMELSSLRSEDTAVYYCATYSGSSGWWAFDIWGQGTMVTVSS
VL: SSELTQDPAVSVALGQTVRITCQGDSLRSYYASWYQQKPGQAPVLVIYGKNNRPSGIPDRFSGSSSGNTASLTITGAQAEDEADYYCQTWGTGIWVFGGGTKLTVL
B4: C10 antibody, IgG1 format (antibody, V domains shown)
VH: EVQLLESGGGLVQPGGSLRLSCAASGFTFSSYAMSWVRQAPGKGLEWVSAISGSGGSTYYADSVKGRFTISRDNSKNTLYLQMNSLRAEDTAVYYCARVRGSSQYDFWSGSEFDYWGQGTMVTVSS
VL: SYVLTQPPSVSVAPGKTASISCGGDNIGGQNVHWYQQKPGQAPVLVIYYDTDRPSGIPERFSGSNSGNTATLSISRVEAADEADYYCQVWDVDSDHPWVFGGGTKLTVL
B5: E6 antibody, IgG1 format (antibody, V domains shown)
VH: QVQLVQSGAEVEKPGASVKVSCRVSGYPLTEIAIHWVRQAPGKGLEWMGSFEPEDAEAIYAQRFQGRVTMTEETSANTAYMELSSLRSEDTAVYFCATDPYYASSGSNYMEVWGRGTLVTVSS
VL: NFMLTQPHSVSESPGKTVTISCTGSGGSISSNYVQWYRQRPGSAPSTVIYEDDQRPSGVPDRISGSIDSSSNSASLTISGLTTEDEADYYCHSYDGNNRWVFGGGTKLTVL
B6: A5 antibody, IgG1 format (antibody, V domains shown)
VH: QVQLVQSGAEVKKPGASVKVSCKVSGYALSELSIHWVRQAPGKGLEWMSYIDPEDGEPIYAQKFQGRATMTEDSSTDTAYMEMGSLTSDDTAVYYCAGVTGSTSDAFDLWGRGTLVTVSS
VL: SYVLTQDPSVSVAPGQTARITCGGANLWGLGVHWYQQKSGQAPVLVVSDNSDRASGIPERFSGSNSGTTATLTLSRVEVGDEADYYCQVWDSSSDHWVFGGRTKLTVL
B7: 2D1 antibody, IgG1 format (antibody, V domains shown)
VH: QVQLVQSGAEVKKPGASVKVSCKVSGYTLNDFAMHWVRQAPGKGLEWMGGYVPEDGDTIYAQKFQGRVTMTEDTSTDTAYMELSSLRSEDTAVYYCATDPLYSGSLSYWGQGTTVTVSS
VL: SYVLTQPPSVSVAPGQTARITCGGNNIESKSVHWYQQKPGQAPVLVVYDDSDRPSGIPERFSGSNSGNTATLTISRVEAGDEADYYCQVWDSNTDHWVFGGGTKVTVL
B8: 5E1 antibody, IgG1 format (antibody, V domains shown)
VH: B7 VH with P100Y, S103I, G104P
VL: B7 VL
B9: 6A8 antibody, IgG1 format (antibody, V domains shown)
VH: B7 VH with S103P, G104P, S105G, S107Q, Y108P
VL: B7 VL
B10: 7B5 antibody, IgG1 format (antibody, V domains shown)
VH: B7 VH
VL: B7 VL with N93G, T94P, D95V, H96W, V98I, V105L
B11: 3E7 antibody, IgG1 format (antibody, V domains shown)
VH: B7 VH with S103P, G104P, S105G, Y108P
VL: B7 VL
B12: 4D8 antibody, IgG1 format (antibody, V domains shown)
VH: B7 VH with S103T, G104P, S105G, S107Y, Y108V
VL: B7 VL
B13: H11 scFv (scFv)
chain: QVQLVQSGAEVKKPGSSVKVSCKASGGISDNYALSWVRQAPGQGLEWMGGFIPLVDTTNYAQRFQGRLTITADDSMSTVYMELRSLRSDDTAMYYCAREQVAVGPGPTSDRGPDGLDVWGQGTMVTVSSQSVLTQPSSVSGAPGHRVTISCTGSNSNLGADYDVHWYQQLPGSAPKLLIYDNNIRPSGVPARFSGSKSGTSASLAITGLQAEDEADYYCQSYDTGLTSSDVIFGGGTKLTVL
B14: CG11 scFv (scFv)
chain: QVQLVQSGTEVKKPGATVNVSCKISGHLFTDYYIHWVQQAPGKGLEWVGLIDPKDGEIQYAEKFQARVTITADTSTDTVYMELNSLRSEDTAVYYCATEVLSGIRVFPFDPWGQGTLVTVSSQSVLTQPPSVSGAPGQRVTISCTGSSSNIGAGYDVYWYQQFPGKAPKLLIYDTNNRPPGVPDRFSGSKSGTSASLAISGLQTEDEADYYCQSYDIALSNSNVVFGGGTKLTVL
B15: 7B5 scFv (scFv)
chain: QVQLVQSGAEVKKPGASVKVSCKVSGYTLNDFAMHWVRQAPGKGLEWMGGYVPEDGDTIYAQKFQGRVTMTEDTSTDTAYMELSSLRSEDTAVYYCATDPLYSGSLSYWGQGTTVTVSSSYVLTQPPSVSVAPGQTARITCGGNNIESKSVHWYQQKPGQAPVLVVYDDSDRPSGIPERFSGSNSGNTATLTISRVEAGDEADYYCQVWDSGPVWWIFGGGTKLTVL
B16: C8 scFv (scFv)
chain: QVQLVESGGGVVQPGRSLRLSCAASGFTFSSYAMHWVRQAPGKGLEWVAVISYDGSNKYYADSVKGRFTISRDNSKNTLYLQMNSLRAEDTAVYYCARETFPHYYYYYMDVWGRGTLVTVSSSYVLTQPPSVSVAPGQTARITCEGDDTDIGTVNWYQQKPGQAPVLVISEDGYRPSGIPERFSGSNSGNTATLTISRVEAGDEADYYCQFWDVDSDHPVFGGGTQLTVL
B17: 1D9 scFv (scFv)
chain: QVQLVQSGAEVKKPGASVKVSCKVSGYTLTEFAMHWVRQAPGKGLEWMGGFVPEDGETIYAQKFQGRVTMTEDTSTDTAYMELSSLRSEDTAVYYCATDPLYTPGLEPWGQGTTVTVSSSYVLTQPPSVSVAPGQTARITCGGNNIESKSVHWYQQKPGQAPVLVVYDDSDRPSGIPERFSGSNSGNTATLTISRVEAGDEADYYCQVWDSNTDHWVFGGGTKLTVL
B18: 1E4 scFv (scFv)
chain: B17 chain with T103E, P104G, G105S, L106F, E107S, P108V
B19: 6A8 scFv (scFv)
chain: B17 chain with T30N, E31D, F51Y, E57D, T103P, E107Q, L224V
B20: 3E7 scFv (scFv)
chain: B17 chain with T30N, E31D, F51Y, E57D, T103P, E107S, L224V
B21: 4D8 scFv (scFv)
chain: B17 chain with T30N, E31D, F51Y, E57D, E107Y, P108V, L224V
B22: 5E1 scFv (scFv)
chain: B15 chain with P100Y, S103I, G104P, G212N, P213T, V214D, W215H, I217V, L224V
B23: E7 scFv (scFv)
chain: QVQLVQSGAEVKKPGSSVKVSCKISGGISDNYALSWVRQAPGQGLEWMGAVIPLVETTSYAQRFQGRLTITADDSLNTLYMELGSLRSDDTAMYYCAREQVAVGPGPTSNRGPDGLDVWGRGTMVTVSSQSVLTQPPSVSGAPGQRVTISCTGSSSNIGDGYDVHWYQQLPGTAPKLLIYGNSNRPSGVPDRFSGSTSGTSASLAIRGLQSEDEADYYCGTWDDILNGWVFGGGTKLTVL
B24: D1 scFv (scFv)
chain: EVQLVQSGPEVKKPGATVKISCNVSAETFTDYYIHWVKQAPGRGLEWMGLVDSEEDGETLFAETFRGRVALTADRSTNTAYMELRSLRHDDTAVYYCAAEYGEYGFFQSWGQGTLVTVSSQSVLTQPPSVSGAPGQRVTISCTGSSSNIGADYDVNWYQQLPGTSPKLLIYGDINRPSGVPDRFSASKSGTSASLAITGLQAEDEADYYCQSFDNSLSGSVIFGGGTKLTVL

Changes are numbered by the printed parent chain.

The first experiment concerns the target T1, recombinant human RANTES (huRANTES, …). Description: cell-based or functional assay.
Take B1: the “Chemotaxis IC50 (nM), 1 nM huRANTES; L1.2-hCCR5 cells; IgG1 format” value (shortened to “Chemotaxis IC50 (nM), 1 nM huRANTES”) was determined as 18.4 nM.

Regarding B2, the “Chemotaxis IC50 (nM), 1 nM huRANTES” value was determined as 16 nM.

In the case of B3, the “Calcium Flux IC50 (nM), 10 nM rhuRANTES; L1.2-hCCR5 cells; IgG1 format” value stood at 7.7 nM and the “Chemotaxis IC50 (nM), 1 nM huRANTES” value turned out to be 29 nM.

Turning to B4, the “Chemotaxis IC50 (nM), 1 nM huRANTES” value came to 17 nM. For the molecule B5, the “Calcium Flux IC50 (nM), 10 nM rhuRANTES; L1.2-hCCR5 cells; IgG1 format” value came out at 12.7 nM and the “Chemotaxis IC50 (nM), 1 nM huRANTES” value was determined as 14 nM. Turning to B6, the “Chemotaxis IC50 (nM), 1 nM huRANTES” value worked out at 13.2 nM. As to B7, the “Chemotaxis IC50 (nM), 0.2 nM huRANTES; L1.2-hCCR5 cells; IgG1 format” value (shortened to “Chemotaxis IC50 (nM), 0.2 nM huRANTES”) came out at 1.3 nM and the “Chemotaxis IC50 (nM), 1 nM huRANTES” value came to 1.7 nM. The like results for B8 were, in that order, 0.25 nM and 0.82 nM. In the case of B9, the “Chemotaxis IC50 (nM), 0.2 nM huRANTES” value stood at 0.31 nM and the “Chemotaxis IC50 (nM), 1 nM huRANTES” value worked out at 0.74 nM.

In the case of B10, the “Chemotaxis IC50 (nM), 0.2 nM huRANTES” value was determined as 0.31 nM and the “Chemotaxis IC50 (nM), 1 nM huRANTES” value came out at 1.1 nM. As to B11, the “Chemotaxis IC50 (nM), 0.2 nM huRANTES” value is 0.25 nM and the “Chemotaxis IC50 (nM), 1 nM huRANTES” value was 0.68 nM. B12: the “Chemotaxis IC50 (nM), 0.2 nM huRANTES” value turned out to be 0.22 nM and the “Chemotaxis IC50 (nM), 1 nM huRANTES” value was 1.16 nM.

Another experiment has the same target. The experiment can be described thus: cell-based or functional assay. This is another data set of the same source.
For B13, the “Chemotaxis IC50 (nM); L1.2 cells expressing hCCR5, 1 nM huRANTES; scFv format” value (“Chemotaxis IC50 (nM) … scFv format” for short) was determined as 4.3 nM.

As to B14, the “Chemotaxis IC50 (nM) … scFv format” value was determined as 3.6 nM. The same measure, in the same setting: with B15 the figure was 1.6 nM; with B16, 90 nM; with B17, 0.82 nM. As for B18, the “Chemotaxis IC50 (nM) … scFv format” value amounted to 1.25 nM.

B19: the “Chemotaxis IC50 (nM) … scFv format” value came to 0.94 nM. The same measure, in the same setting: with B20 the figure was 0.47 nM; with B21, 0.08 nM. Same read-out and setting: as for B22, the figure is 0.2 nM. For B23, the “Chemotaxis IC50 (nM) … scFv format” value came to 3.8 nM. Consider B24, for which the “Chemotaxis IC50 (nM) … scFv format” value amounted to 22 nM.
